Test results from publication PMC8993905, “Functional control of a 0.5 MDa TET aminopeptidase by a flexible loop revealed by MAS NMR” (Nature Communications, 2022).

B1: TET2 (Pyrococcus horikoshii OT3; DEL122-122/DEL126-126) (protein)
chain: MEVRNMVDYELLKKVVEAPGVSGYEFLGIRDVVIEEIKDYVDEVKVDKLGNVIAHKKGEGPKVMIAAHMDQIGLMVTHIEKNGFLRVAPIGGVDPKTLIAQRFKVWIDKGKFIYGVGASVPHIQPEDRKKAPDWDQIFIDIGAESKEEAEDMGVKIGTVITWDGRLERLGKHRFVSIAFDDRIAVYTILEVAKQLKDAKADVYFVATVQEEVGLRGARTSAFGIEPDYGFAIDVTIAADIPGTPEHKQVTHLGKGTAIKIMDRSVICHPTIVRWLEELAKKHEIPYQLEILLGGGTDAGAIHLTKAGVPTGALSVPARYIHSNTEVVDERDVDATVELMTKALENIHELKI
notes: full length, 353 residues per subunit, pET41c in E. coli BL21(DE3), no tag mentioned (heat step, Resource Q, Superdex 200), 39 kDa subunit, 468 kDa homododecamer, two Zn per active site
B2: TET2 (Pyrococcus horikoshii OT3; DEL120-138) (protein)
chain: MEVRNMVDYELLKKVVEAPGVSGYEFLGIRDVVIEEIKDYVDEVKVDKLGNVIAHKKGEGPKVMIAAHMDQIGLMVTHIEKNGFLRVAPIGGVDPKTLIAQRFKVWIDKGKFIYGVGASIFIDIGAESKEEAEDMGVKIGTVITWDGRLERLGKHRFVSIAFDDRIAVYTILEVAKQLKDAKADVYFVATVQEEVGLRGARTSAFGIEPDYGFAIDVTIAADIPGTPEHKQVTHLGKGTAIKIMDRSVICHPTIVRWLEELAKKHEIPYQLEILLGGGTDAGAIHLTKAGVPTGALSVPARYIHSNTEVVDERDVDATVELMTKALENIHELKI
notes: as for B1
B3: TET2 (Pyrococcus horikoshii OT3) (protein)
chain: MEVRNMVDYELLKKVVEAPGVSGYEFLGIRDVVIEEIKDYVDEVKVDKLGNVIAHKKGEGPKVMIAAHMDQIGLMVTHIEKNGFLRVAPIGGVDPKTLIAQRFKVWIDKGKFIYGVGASVPPHIQKPEDRKKAPDWDQIFIDIGAESKEEAEDMGVKIGTVITWDGRLERLGKHRFVSIAFDDRIAVYTILEVAKQLKDAKADVYFVATVQEEVGLRGARTSAFGIEPDYGFAIDVTIAADIPGTPEHKQVTHLGKGTAIKIMDRSVICHPTIVRWLEELAKKHEIPYQLEILLGGGTDAGAIHLTKAGVPTGALSVPARYIHSNTEVVDERDVDATVELMTKALENIHELKI
notes: as for B1
B4: TET2 (Pyrococcus horikoshii OT3; H123F) (protein)
chain: MEVRNMVDYELLKKVVEAPGVSGYEFLGIRDVVIEEIKDYVDEVKVDKLGNVIAHKKGEGPKVMIAAHMDQIGLMVTHIEKNGFLRVAPIGGVDPKTLIAQRFKVWIDKGKFIYGVGASVPPFIQKPEDRKKAPDWDQIFIDIGAESKEEAEDMGVKIGTVITWDGRLERLGKHRFVSIAFDDRIAVYTILEVAKQLKDAKADVYFVATVQEEVGLRGARTSAFGIEPDYGFAIDVTIAADIPGTPEHKQVTHLGKGTAIKIMDRSVICHPTIVRWLEELAKKHEIPYQLEILLGGGTDAGAIHLTKAGVPTGALSVPARYIHSNTEVVDERDVDATVELMTKALENIHELKI
notes: as for B1
B5: TET2 (Pyrococcus horikoshii OT3; H123Y) (protein)
chain: MEVRNMVDYELLKKVVEAPGVSGYEFLGIRDVVIEEIKDYVDEVKVDKLGNVIAHKKGEGPKVMIAAHMDQIGLMVTHIEKNGFLRVAPIGGVDPKTLIAQRFKVWIDKGKFIYGVGASVPPYIQKPEDRKKAPDWDQIFIDIGAESKEEAEDMGVKIGTVITWDGRLERLGKHRFVSIAFDDRIAVYTILEVAKQLKDAKADVYFVATVQEEVGLRGARTSAFGIEPDYGFAIDVTIAADIPGTPEHKQVTHLGKGTAIKIMDRSVICHPTIVRWLEELAKKHEIPYQLEILLGGGTDAGAIHLTKAGVPTGALSVPARYIHSNTEVVDERDVDATVELMTKALENIHELKI
notes: as for B1
B6: TET2 (Pyrococcus horikoshii OT3; H123K) (protein)
chain: MEVRNMVDYELLKKVVEAPGVSGYEFLGIRDVVIEEIKDYVDEVKVDKLGNVIAHKKGEGPKVMIAAHMDQIGLMVTHIEKNGFLRVAPIGGVDPKTLIAQRFKVWIDKGKFIYGVGASVPPKIQKPEDRKKAPDWDQIFIDIGAESKEEAEDMGVKIGTVITWDGRLERLGKHRFVSIAFDDRIAVYTILEVAKQLKDAKADVYFVATVQEEVGLRGARTSAFGIEPDYGFAIDVTIAADIPGTPEHKQVTHLGKGTAIKIMDRSVICHPTIVRWLEELAKKHEIPYQLEILLGGGTDAGAIHLTKAGVPTGALSVPARYIHSNTEVVDERDVDATVELMTKALENIHELKI
notes: as for B1

Substrate: CC(C)C[C@H](N)C(=O)Nc1ccc([N+](=O)[O-])cc1
Test: purified protein
Format: biochemical, Pyrococcus horikoshii
Details: pH 7.5 (20 mM Tris, 100 mM NaCl), 50 °C, 2.8% DMSO, 0.1-6.4 mM substrate
[1] = mutant printed as Δ(122,126), loop shortened by one residue on each side of H123
[2] = Δloop mutant, loop printed as shortened to a two-residue β-turn and as lacking residues 120-138

Protein	Km [mM]	kcat [s⁻¹]	also measured
B1	–	–	Km [1]: 28.5 ± 2.3 mM; kcat [1]: 31.5 ± 8.1 s⁻¹
B2	–	–	Km [2]: 1.3 ± 0.1 mM; kcat [2]: 1.7 ± 1.0 s⁻¹
B3	3.2 ± 0.1	14.1 ± 1.7	–
B4	14.4 ± 0.6	26.6 ± 4.1	–
B5	13.8 ± 0.6	15.7 ± 2.7	–
B6	17.0 ± 1.3	16.9 ± 3.6	–
